B1: F425-A1g8 IgA1 antibody variant (antibody)
heavy: QEQLVESGGGVVQPGRSLRLSCEASGFIFSAFVLHWVRQAPGKGLEWVAVVWYDGNSKYYADSVKGRFTISRDTSQNTLHLQMDSLRPEDTAVYYCAREWVADDDTFDGFDVWGQGTMVTVSSASLTSPKVFPLSLCSTQPDGNVVIACLVQGFFPQEPLSVTWSESGQGVTARNFPPSQDASGDLYTTSSQLTLPATQCLAGKSVTCHVKHYTNPSQDVTVPCPVPSTPPTPSPSTPPTPSPSCCHPRLSLHRPALEDLLLGSEANLTCTLTGLRDASGVTFTWTPSSGKSAVQGPPDRDLCGCYSVSSVLSGCAEPWNHGKTFTCTAAYPESKTPLTATLSKSGNTFRPEVHLLPPPSEELALNELVTLTCLARGFSPKDVLVRWLQGSQELPREKYLTWASRQEPSQGTTTFAVTSILRVAAEDWKKGDTFSCMVGHEALPLAFTQKTIDRLAGKPTHVNVSVVMAEVDGTCY
light: not shown
B2: b12 IgA2 purified from CHO cells (antibody, V domains shown)
VH: QVQLVQSGAEVKKPGASVKVSCQASGYRFSNFVIHWVRQAPGQRFEWMGWINPYNGNKEFSAKFQDRVTFTADTSANTAYMELRSLRSADTAVYYCARVGPYSWDDSPQDNYYMDVWGQGTTVIVSS
VL: EIVLTQAPGTLSLSPGERATFSCRSSHSIRSRRVAWYQHKPGQAPRLVIHGVSNRASGISDRFSGSGSGTDFTLTITRVEPEDFALYYCQVYGASSYTFGQGTKLERKR
B3: b12 IgA2 purified from milk (antibody, V domains shown)
VH: B2 VH
VL: B2 VL
B4: b12 IgA2 expressed in milk (antibody, V domains shown)
VH: B2 VH
VL: B2 VL
B5: F425-A1g8 IgG1 antibody variant (antibody, V domains shown)
VH: QEQLVESGGGVVQPGRSLRLSCEASGFIFSAFVLHWVRQAPGKGLEWVAVVWYDGNSKYYADSVKGRFTISRDTSQNTLHLQMDSLRPEDTAVYYCAREWVADDDTFDGFDVWGQGTMVTVSS
VL: EIVLSQSPATLSLSPGERATLSCRASQSVTNSLAWYQQKPGQAPRLLIYDASNRATGIPARFSGSGSGTDFTLTISSLEPEDFAVYYCQQRSNWPPEVTFGPGTKVDIKR

Legend:
Test in all cases: cell-based or functional assay
HIV-1 JR-FL gp120 [1] = target: T1, HIV-1 JR-FL gp120 (HIV-1, isolate JR-FL)
HIV-1 67970 gp120 = HIV-1 67970 gp120 (HIV-1, isolate 67970)
HIV-1 SF162 gp120 [2] = target: T2, HIV-1 SF162 gp120 (HIV-1, isolate SF162, UniProt P19550 32-502)
HIV-1 JR-FL gp120 [3] = target: T1, HIV-1 JR-FL gp120; remark: listed apart in the source
HIV-1 89.6 gp120 [4] = target: T3, HIV-1 89.6 gp120 (HIV-1, isolate 89.6, UniProt Q73372 32-508)
HIV-1 93MW960 gp120 [5] = target: T4, HIV-1 93MW960 gp120 (HIV-1, isolate 93MW960)
HIV-1 BaL gp120 [6] = target: T5, HIV-1 BaL gp120 (HIV-1, isolate BaL)
HIV-1 SF162 gp120 [7] = target: T2, HIV-1 SF162 gp120; set-up: unit not given beside the values
HIV-1 89.6 gp120 [8] = target: T3, HIV-1 89.6 gp120; set-up: unit not given beside the values
HIV-1 SF162 gp120 [9] = target: T2, HIV-1 SF162 gp120; remark: listed apart in the source
HIV-1 JR-FL gp120 [10] = target: T1, HIV-1 JR-FL gp120; remark: listed apart in the source
HIV-1 89.6 gp120 [11] = target: T3, HIV-1 89.6 gp120; remark: listed apart in the source
HIV-1 93MW960 gp120 [12] = target: T4, HIV-1 93MW960 gp120; remark: listed apart in the source
HIV-1 BaL gp120 [13] = target: T5, HIV-1 BaL gp120; remark: listed apart in the source

Binder	IC50, neutralization of HIV-1 JR-FL (TZM-bl cells, no sCD4) (HIV-1 JR-FL gp120 [1]) [µg/mL]	IC50, neutralization of HIV-1 67970 (TZM-bl cells, no sCD4) (HIV-1 67970 gp120) [µg/mL]	IC50, ADCVI with neutrophils, SF162-infected PBMC (HIV-1 SF162 gp120 [2]) [µg/mL]	IC50, ADCVI with neutrophils, JR-FL-infected PBMC (HIV-1 JR-FL gp120 [3]) [µg/mL]	IC50, ADCVI with neutrophils, 89.6-infected PBMC (HIV-1 89.6 gp120 [4]) [µg/mL]	IC50, ADCVI with neutrophils, 93MW960-infected PBMC (HIV-1 93MW960 gp120 [5]) [µg/mL]	IC50, ADCVI with neutrophils, BaL-infected PBMC (HIV-1 BaL gp120 [6]) [µg/mL]	IC90, neutralization of HIV SF162 (TZM-bl assay) (HIV-1 SF162 gp120 [7])	IC90, neutralization of HIV 89.6 (TZM-bl assay) (HIV-1 89.6 gp120 [8])	IC50, ADCVI assay with PMN (+ PMN), SF162-infected PBMC (HIV-1 SF162 gp120 [9]) [µg/mL]	IC50, ADCVI assay without PMN (- PMN), SF162-infected PBMC (HIV-1 SF162 gp120 [9]) [µg/mL]	IC50, ADCVI assay with PMN (+ PMN), JR-FL-infected PBMC (HIV-1 JR-FL gp120 [10]) [µg/mL]	IC50, ADCVI assay without PMN (- PMN), JR-FL-infected PBMC (HIV-1 JR-FL gp120 [10]) [µg/mL]	IC50, ADCVI assay with PMN (+ PMN), 89.6-infected PBMC (HIV-1 89.6 gp120 [11]) [µg/mL]	IC50, ADCVI assay without PMN (- PMN), 89.6-infected PBMC (HIV-1 89.6 gp120 [11]) [µg/mL]	IC50, ADCVI assay with PMN (+ PMN), 93MW960-infected PBMC (HIV-1 93MW960 gp120 [12]) [µg/mL]	IC50, ADCVI assay without PMN (- PMN), 93MW960-infected PBMC (HIV-1 93MW960 gp120 [12]) [µg/mL]	IC50, ADCVI assay with PMN (+ PMN), BaL-infected PBMC (HIV-1 BaL gp120 [13]) [µg/mL]	IC50, ADCVI assay without PMN (- PMN), BaL-infected PBMC (HIV-1 BaL gp120 [13]) [µg/mL]
B1	1.73	23.3	6.1	16.6	> 40	18.3	> 40	–	–	–	–	–	–	–	–	–	–	–	–
B2	–	–	–	–	–	–	–	1.03	6.75	0.3	9.5	> 20	> 20	14.5	> 20	10	> 20	2.1	> 20
B3	–	–	–	–	–	–	–	0.79	8.37	0.3	2.1	> 20	> 20	17.1	> 20	17.5	> 20	2.2	13.1
B4	–	–	–	–	–	–	–	0.34	1.85	0.4	6.6	–	9.6	3.9	4.8	3.3	> 20	2.3	19.3
B5	> 40	> 40	> 40	> 40	> 40	9.5	> 40	–	–	–	–	–	–	–	–	–	–	–	–

From patent US20160039913A1 (LFB USA, published 2016)
